Test [1] has as its target PilB from Geobacter metallireducens (Geobacter metallireducens). In words: crystal structure; PilB:AMP-PNP; non-saturating AMP-PNP (50 μM final to 120 μM PilB); 11% PEG3350, 0.1 M magnesium formate, 0.1 M Tris pH 7.0, vapour diffusion at 20 °C; six chains in the asymmetric unit.
Test [2] shares this target. In words: crystal structure; PilB:ADP; no exogenous nucleotide added; 13% PEG3350, 0.1 M magnesium formate, 0.1 M Tris pH 7.6, vapour diffusion at 20 °C; three chains in the asymmetric unit, hexamer from crystal packing.
Test [3] deals with T1, PilB (PilBGm) (Geobacter metallireducens, UniProt Q39VU7).
T1 construct: hexamer; residues 181-568 (N2D + CTD) built; primer-encoded start MQASRL, end TVADD
T1 sequence (Q39VU7 entry or part of it): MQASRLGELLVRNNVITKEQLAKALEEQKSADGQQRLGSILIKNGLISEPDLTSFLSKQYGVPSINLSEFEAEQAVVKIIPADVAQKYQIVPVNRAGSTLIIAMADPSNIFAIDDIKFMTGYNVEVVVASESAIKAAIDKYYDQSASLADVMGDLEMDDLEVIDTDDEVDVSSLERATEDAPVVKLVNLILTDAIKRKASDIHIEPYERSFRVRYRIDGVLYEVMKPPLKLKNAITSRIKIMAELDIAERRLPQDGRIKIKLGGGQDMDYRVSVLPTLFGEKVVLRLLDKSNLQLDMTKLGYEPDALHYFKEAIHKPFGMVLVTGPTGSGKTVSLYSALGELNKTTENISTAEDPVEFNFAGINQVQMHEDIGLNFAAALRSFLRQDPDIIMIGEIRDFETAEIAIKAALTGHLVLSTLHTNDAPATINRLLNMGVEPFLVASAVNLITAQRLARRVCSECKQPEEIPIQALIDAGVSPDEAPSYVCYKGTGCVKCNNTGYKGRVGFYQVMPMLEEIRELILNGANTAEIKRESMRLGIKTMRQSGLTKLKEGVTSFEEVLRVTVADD
In words: X-ray crystallography, […] Å (anisotropic). The note with it: Mg2+; pH 7.6; 20 °C; no exogenous nucleotide, ADP co-purified from E. coli; four closed ATP binding sites.

Test [4] has as its target T1, PilB (PilBGm). Description: X-ray crystallography, […] Å. The note with it: Mg2+; pH 7.0; 20 °C; non-saturating AMP-PNP; ATP binding sites (closed full occupancy, open ~70%).

On to “PilB from Geobacter metallireducens (enzyme)”, for which the stoichiometry N in test [1] and in test [2] was 6 throughout.
For `Nc1ncnc2c1ncn2[C@@H]1O[C@H](COP(=O)(O)OP(=O)(O)O)[C@@H](O)[C@H]1O` [ADP], in test [3], the “X-ray crystallography, 3.4 Å (anisotropic)” value is “In four sites, ADP and magnesium best fit the electron density”.
With `Nc1ncnc2c1ncn2[C@@H]1O[C@H](COP(=O)(O)OP(=O)(O)NP(=O)(O)O)[C@@H](O)[C@H]1O` [AMP-PNP], the “X-ray crystallography, 2.3 Å” value in test [4] was “Between two packing units, AMP-PNP, magnesium, and several highly ordered waters best fit”.

A word on the stoichiometry N: it is the number of molecules, sites or subunits per partner or assembly.

The values are drawn from paper PMC5424180, “The molecular mechanism of the type IVa pilus motors” (Nature Communications, 2017).
